Test results reported in patent publication US20210179724A1.

Legend:
[1] = molecular target: adenosine A2A receptor (Homo sapiens (Human)) (UniProt P29274); experiment: flow cytometry, HEK293-A2a cells; Parent Singlets in the same table: 230; same picture as FIG. 16O
[2] = molecular target: adenosine A2A receptor (Homo sapiens (Human)) (UniProt P29274); experiment: flow cytometry, HEK293-A2a cells; Parent Singlets in the same table: 230
[3] = molecular target: adenosine A2A receptor (Homo sapiens (Human)) (UniProt P29274); experiment: cell-based or functional assay

Chain of adenosine A2A receptor (Homo sapiens (Human)) (P29274 whole entry): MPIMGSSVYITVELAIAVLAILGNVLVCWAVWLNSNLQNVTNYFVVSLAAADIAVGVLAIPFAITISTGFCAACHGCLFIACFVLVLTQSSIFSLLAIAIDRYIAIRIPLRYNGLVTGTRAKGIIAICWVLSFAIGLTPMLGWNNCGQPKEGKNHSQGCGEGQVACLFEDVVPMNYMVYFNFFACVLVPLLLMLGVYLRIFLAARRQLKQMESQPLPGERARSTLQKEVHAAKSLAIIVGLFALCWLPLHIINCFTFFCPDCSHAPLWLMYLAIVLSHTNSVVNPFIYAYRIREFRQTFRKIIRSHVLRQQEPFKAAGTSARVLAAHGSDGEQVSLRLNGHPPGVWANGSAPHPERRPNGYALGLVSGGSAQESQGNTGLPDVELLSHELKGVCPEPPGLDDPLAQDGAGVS

| Median : RL1-H (A2a Singlets) [1] | Median : RL1-H (A2a Singlets) [2] | Absolute IC50, A2A cAMP antagonist titration (as in Example 16: titrated IgG, fixed NECA) [3] | Absolute IC50, LANCE allosteric cAMP assay, titrated IgG then fixed NECA concentration [3] | Absolute IC50, cAMP allosteric A2A assay (as in Example 15: fixed IgG, NECA titration) [3] | Absolute IC50 of NECA titration in cAMP assay, cells pre-incubated with fixed 100 nM IgG [3] | Substance |
| --- | --- | --- | --- | --- | --- | --- |
| 7500 | 7500 | – | – | – | – | Human Adenosine A2aR monoclonal (MAB9497) (antibody) |
| – | – | 9.43 | 9.43 | 0.513 | 2.25 | R&D control antibody |
